The assay addresses T1, E. coli SufE (E. coli), P76194.
T1 chain: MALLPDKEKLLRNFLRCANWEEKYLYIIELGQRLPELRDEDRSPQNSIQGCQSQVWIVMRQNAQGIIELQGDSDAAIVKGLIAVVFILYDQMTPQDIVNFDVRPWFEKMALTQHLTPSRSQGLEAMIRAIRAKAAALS
As to the kind of experiment: cross-linking; disulfide-linked species after treatment with 1 mM H2O2; SDS-PAGE under reducing (+DTT) and non-reducing (-DTT) conditions. The settings on record: remark: other sources report otherwise.

B1: E. coli SufE, P76194 1-138 (natural protein)
chain: MALLPDKEKLLRNFLRCANWEEKYLYIIELGQRLPELRDEDRSPQNSIQGCQSQVWIVMRQNAQGIIELQGDSDAAIVKGLIAVVFILYDQMTPQDIVNFDVRPWFEKMALTQHLTPSRSQGLEAMIRAIRAKAAALS
The molecule B1 had a percent of total SufE as disulfide-bonded homodimer of 34%.
